Measured values reported in PMC2577774 (Journal of molecular biology, 2008).

Biological target: the molecule itself
Assay: native MS

B1: gp3(Δ1–152), C-terminal truncate of P22 terminase small subunit gp3 lacking ten amino acids (domain or fragment, bacteriophage P22, UniProt P04893 1-152, looked up)
chain: MAAPKGNRFWEARSSHGRNPKFESPEALWAACCEYFEWVEANPLWEMKAFSYQGEVIQEPIAKMRAMTITGLTLFIDVTLETWRTYRLREDLSEVVTRAEQVIYDQKFSGAAADLLNANIIARDLGLKEQSQVEDVTPDKGDRDKRRSRIKE
B1 was tested, and the “stoichiometry N” value was 9.
